Consider one protein from patent publication US20240307442.

Series [1] concerns the target collagen IV.
Series [2] addresses fibronectin.
The target in series [3] is collagen I.

B1: Active Neutrophil Elastase (protein)
chain: IVGGRRARPHAWPFMVSLQLRGGHFCGATLIAPNFVMSAAHCVANVNVRAVRVVLGAHNLSRREPTRQVFAVQRIFENGYDPVNLLNDIVILQLNGSATINANVQVAQLPAQGRRLGNGVQCLAMGWGLLGRNRGIASVLQELNVTVVTSLCRRSNVCTLVRGRQAGVCFGDSGSPLVCNGLIHGIASFVRGGCASGLYPDAFAPVAQFVNWIDSIIQ
As to B1, the “Western Blot of ECM molecules degraded by culture media” value in series [1], in series [2] and in series [3] was “NE released by GCC CAR CK+NE cells can degrade ECM molecules when GCC CAR CK+NE Cells are co-cultured with the substrate cells” in each case.
